The sequences below were run on T1, Zur (Pseudomonas aeruginosa), ORF:f39b2fc0 (assay: EMSA). Conditions: EMSA: 30 ng DNA, 500 nM Zur, 5X Zn-less binding buffer (50 mM Tris, 200 mM KCl, 50 mM MgCl2, 5 mM DTT, 25% glycerol; 5X [sic], pH not given), 5 uM ZnCl2 ….
T1 sequence: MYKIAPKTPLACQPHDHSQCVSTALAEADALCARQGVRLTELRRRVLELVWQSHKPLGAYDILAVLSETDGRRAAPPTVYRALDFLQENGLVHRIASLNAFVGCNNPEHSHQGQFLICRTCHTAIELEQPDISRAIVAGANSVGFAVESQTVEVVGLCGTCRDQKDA

binding, binds:
ACTTTCCCGTTCCTCTTCGCCGGCAGGCATGCGGACATTGCCGCTGCACGTCGGCACGACGCCATGCAGAGTGGCTACGCGGGTCTACCGACACAAAAAGAAATAATATAACATCCCAATAAATACGCCGATCCGACCCCGTCGCCCTTCCTCCGGGAAGGGCCTGGGTTCGCTTTGGCCTGAAAAAAGTCCGACCCA (double strand) [pznuD], AGAAGTCCTGCTGGGCTTCGTCCATGTAGGCAGCGTCGGGCTGGGCAAGCAGTTCCTGTTCGGTCATGGGCTGAACCTGGGAAATTTAAAACGTTATACTATAACAATTAACACCACAATCGATGGCCCGCCAATCGCCTTCCGGCTACCCTGGGCCCACGTCATCCCGGGATCCACCGATGCGCCGCGTCCTCCGCCTTTACT (double strand) [pdksA2], ATGGGCCTGGGCGGCGAACGGCAGCAAGACGAGGGCTAACAGCAGTGGGCGCATGAACGGGACTCCGGCAAGGAAGGAAAAGAGTTTGTTACGTTATAACGAATTTTTCCGCCTGCCTAGCCTGGCCGATTTGGCCCCTACGCGCCGACGTGGGAGCATGGCGCGATTCGCTTGTGGAGAAAC (double strand) [pPA4063], CATAGCAGGCCGGCGTGAAGAAAATGTGATGACCCGGGAAGCTGCGCCAGGGCGTGGGGTCCGGCGAAGAAAGACTGCACAAGCGAATTGTTATAGTATAACATTTTATTCAATCCAGATCGTTCAAGGCTTGACTGGAAACGGTGCGGATGTTCCCATCCGGCCCGTTCCAGGTGCCTCCTGCCGCCGCGCAGGAGGTGAAACGGGAAGCCGGTGCGTCACTTCGGTGA (double strand) [pPA2911], CTCTGCCAGACCAGTTCCAGCACGCGCCGCCGCAGTTCGGTCAGGCGCACGCCCTGGCGCGCGCACAGCGCATCGGCCTCGGCCAGCGCGGTGCTGACGCACTGGCTGTGGTCATGGGGCTGGCAGGCCAGCGGGGTCTTGGGCGCAATCTTGTACATGGGCTGCGACGCTCGAGGGTAGAGACGTTATTATATTACCCGCTAACCACCTTTCA (double strand) [pznuA], GAGCGCCATGATCTGCTCGGTTGCGGTCATCTTTCCTCCTGGGGGGCATGCCCGGTTGAGAGTGGGGTCCTGTGCTTCGAGGGATACGGCGAGCGAGACGTTCCCTCGCCTCGATGAAGAAGAAACGGCGGGCATTCTTCATTCGAAGAAATGTTATGTTATAACTTATAAGTATTTATAATTCATACCTGCCGACCATGACCCCCCATTCCTCCCCGCACCGTCTTCCTCCGCTGCGGCTGGCCCGCGCCGTGCCGTTCCTCTACCTGCTTC (double strand) [pPA1922], GGCTGGGCTGGTCGTCGGAAAAGAGGGATGAGTATCACAGCCTGGCGGCGAGAAGCGAGATAGAGCCGGGCATTGTATTGCGAGGCCGGAATCGAACTGGTAGCGTTATAGTATATCATTTCTTTTCTGGTGCGATTTCCCATGAGAGTCAGTGTGTCGCTTGTCCTCGGTGTCGGCCTCGGTTGCAGCAGTCCGGCGCTCTGGGCGGAAACGGAAAGTCCCGCGG (double strand) [pzrmA], GTGCTGCACACAGACTCTCGTCTTCCAGTCAAGAGCCTTGGGATGCAGACTGTTTTTCAAATCATGACAACTTCTTAACGCGCATTGTTATAAAGTTGCGGGCGTTTGCGCCGGCCTGGCCGGTACCTTCGAGTTTTGCCTGGAGTGAAGATGAGAGTCGACCTGGAC (double strand) [pPA2439], TCGAGCAGCCGAATGGTCGCCGGGAACTCTTTCCGGAGTTGCGAATTATTCTTATCGGAGTAATATGTAACTATATAACATTATGTAGGAGGCATCCCCATGAAACCCGGCATCCATCCCGAATACCGTCCCGTCCTGTTCCATGACACCTCGGCCGACGTGTACTTCCTGATCGGCTCCACC (double strand) [prpmE2]
